How the values were obtained:
[1] = test system: bile salts; assay: Specificity testing of the CadC-TcpP bactosensor across a panel of twelve bile salts
[2] = test system: Taurocholic acid; type: cell-based, E. coli
[3] = test system: bile salts; type: cell-based, E. coli; conditions: kinetic analysis, data not shown

B1: TcpPwt: Wild-type V. cholerae TcpP bile salt sensing domain, loop NYEQ (SEQ ID NO:4/24), fused to E. coli CadC DNA binding domain (SEQ ID NO:48) (protein)
chain: MQQPVVRVGEWLVTPSINQISRNGRQLTLEPRLIDLLVFFAQHSGEVLSRDELIDNVWKRSIVTNHVVTQSISELRKSLKDNDEDSPVYIATVPKRGYKLMVPVIWYSEEEGEEIMLSSPPPIPEAVPATDSPSHSLNIQNTATPPEQSPVKSKRVVPYLVFSALYVALLPVIWWSYGQWYQHELAGITHDLRDLARLPGITIQKLSEQKLTFAIDQHQCSVNYEQKTLECTKN
modifications: Synthetic bile salts chimeric receptor
response to secondary bile salts [1]: did not respond
specificity across bile salts ([1]; primary and secondary types): highly specific for primary conjugated bile salts

B2: SV_3-3-16: TcpP bile salt sensing domain variant, loop DFLT (SEQ ID NO:9/29), CadC fusion SEQ ID NO:53 (protein)
chain: MQQPVVRVGEWLVTPSINQISRNGRQLTLEPRLIDLLVFFAQHSGEVLSRDELIDNVWKRSIVTNHVVTQSISELRKSLKDNDEDSPVYIATVPKRGYKLMVPVIWYSEEEGEEIMLSSPPPIPEAVPATDSPSHSLNIQNTATPPEQSPVKSKRVVPYLVFSALYVALLPVIWWSYGQWYQHELAGITHDLRDLARLPGITIQKLSEQKLTFAIDQHQCSVDFLTKTLECTKN
modifications: Synthetic bile salts chimeric receptor
EC50 ([2]; taurocholic acid (TCA) as ligand, GFP output): 42.1 µM
Max fold change ([2]; taurocholic acid titration): 75.73

B3: SV_3-3-18: TcpP bile salt sensing domain variant, loop VFSD (SEQ ID NO:10/30), CadC fusion SEQ ID NO:54; best engineered variant (protein)
chain: MQQPVVRVGEWLVTPSINQISRNGRQLTLEPRLIDLLVFFAQHSGEVLSRDELIDNVWKRSIVTNHVVTQSISELRKSLKDNDEDSPVYIATVPKRGYKLMVPVIWYSEEEGEEIMLSSPPPIPEAVPATDSPSHSLNIQNTATPPEQSPVKSKRVVPYLVFSALYVALLPVIWWSYGQWYQHELAGITHDLRDLARLPGITIQKLSEQKLTFAIDQHQCSVVFSDKTLECTKN
modifications: Synthetic bile salts chimeric receptor
response speed at low ligand concentration compared to wt TcpP [3]: faster response at low ligand concentration

Source: patent US20230304023A1, “BILE SALTS B[…] USE THEREOF FOR DIAGNOSTIC AND T[…]” (INSERM (INSTITUT NATIONAL DE LA SANTÉ ET DE LA RECHERCHE …, priority 2020, published 2023)
